Data published in WO2009150539A2 (dated 2009).
Where “and” joins values, the source holds several entries; their conditions need not be identical. Identical values can stand only once.

Legend:
[1] = biological target: T1, AahII toxin of Androctonus australis hector (Androctonus australis hector, UniProt P01484 20-83); test: phage ELISA on coated AahII, Nb displayed on phage
T1 construct: mature; also called Aahll
T1 sequence: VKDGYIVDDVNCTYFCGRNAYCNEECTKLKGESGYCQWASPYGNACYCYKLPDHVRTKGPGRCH

[2] = biological target: T1, AahII toxin of Androctonus australis …; test: SPR (BIAcore), AahII immobilised on CM5 chip, Nb in mobile phase
[3] = biological target: T1, AahII toxin of Androctonus australis …; test: cell-based or functional assay

B1: NbAahII45 (VHH)
VHH: QVQLQESGGGSVQAGGSLKLSCAASGYFYSSNYYMAWFRQAPGKEREGVAHINRSGRITLYADSVKGRFTMSRDNAKNTVYLQMNSLKPEDTAIYYCAAGVRTHMPPLASYGFDYWGQGTQVTVSS
[1]
  binding result: binds

B2: NbAahII16 (VHH)
VHH: HVQLVESGGGSVQAGGSLRLSCAASGYTFSNYRMGWFRRAPGKECELVSTILTDGSTNYADSVKGRFTISRDNAKNTVYLLMNNLKAEDTAVYYCAAGNSRKGYLRRCGGTDFGYWGQGTQVTVSS
notes: also called NbAahlllό
[1]
  binding result: binds

B3: NbAahII11 (VHH)
VHH: QVQLQESGGGSVQAGGSLRLSCAASGLTLNNYCIGWFRQAPGKEREGVAALKSGGSFTYYADSVKGRFTISRDNAKNTMYLQMSSLNSEDTAMYYCAVTRNSCLGLAKFRPSSYNYWGQGTQVTVSS
notes: also called NbAaWI 1 1; NbAahIIl l
[1]
  binding result: binds

B4: NbAahII32 (VHH)
VHH: QVQLQESGGGSVQAGGSLRLSCAASGLTLNNYCIGWFRQAPGKEREGVAALKSGGSFTYYADSVKGRFTISRDNAKNTMYLQMSSLNSEDTAMYYCAVTRNSCLGLAKFRPSSYNYWGQGTQVTVSS
[1]
  binding result: binds

B5: NbAahII6 (VHH)
VHH: QVQLQESGGGSVQAGGSLRLSCAASGATLNNYCLGWFRQAPGKEREGVAAFKSGGSFTYYADSVKGRFTISKDNAKNTMYLQMNSLNSEDTAMYYCAVTRHSCLGLAKFRPSSYNYWGQGTQVTVSS
notes: also called NbAahllό
[1]
  binding result: binds

B6: NbAahII3 (VHH)
VHH: QVQLVESGGGSVQAGGSLRLACAASGVTLSDYCMGWFRQAPGKEREGVAAIKDRGSISYYADSVKGRFTISKDNAKNTMYLQMNRLNSEDTAMYYCAVTRNSCLGLAKFRPPSYNYWGQGTQVTVSS
notes: also called NbAahID; NbAahIB
[1]
  binding result: binds

B7: NbAahII48 (VHH)
VHH: QVQLVESGGGSVQAGGSLRLSCAASGYTCTKFNMGWYRQAPGKEREFVATIRRDSTIYYADSVKGRFTISQDNAKNMVYLQMTSLKPEDSAMYYCSTRCVTSSVPYWGQGTQVTVSS
[1]
  binding result: binds

B8: NbAahII10 (VHH)
VHH: QVQLVESGGGSVQAGGSLKLSCAASGYFYSSNYCLGWFRQAPGKEREGVAQINIAPGRIYYADSVKGRFTISRDNAKNTVYLQMDSLKPEDTAIYYCASTAGNMYYGLRGPADFDYWGQGTQVTVSS
notes: also called NbAahIIlO; NbAahII lO
[2]
  Kd: 0.49 nM
  koff: 0.000569 s⁻¹
  kon: 1.14e+06 M⁻¹ s⁻¹
[3]
  NC = (LD50 with Nb - LD50 without Nb)/Nb; i.c.v.; AahII:Nb 1:4: 37000 LD50/mg and 555 LD50/nmol
  Survivors/Injected mice; i.c.v.; AahII:Nb 1:4; 2 LD50/mouse; 48 ng Nb/mouse: 4 survivors of 4 mice
  Survivors/Injected mice; i.c.v.; AahII:Nb 1:4; 3 LD50/mouse; 72 ng Nb/mouse: 4 survivors of 4 mice
  neutralizing capacity, i.c.v., toxin/Nb ratio 1/4: ~37500 LD50/mg

B9: NbAahII38 (VHH)
VHH: DVQLVESGGGLVQPGGSLRLSCAASGFTFSNYVMSWVRQAPGKGLEWVSGINHGGGIQDYADSVKGRFTISRDNAKNTLYLQLNSLKIEDTAMYYCVRASHYRDYGPTIYSWGQGTQVTVSS
notes: also called cluster H
[2]
  Kd: 76 nM
  koff: 0.000781 s⁻¹
  kon: 10200 M⁻¹ s⁻¹
[3]
  Survivors/Injected mice; i.c.v.; AahII:Nb 1:2; 2 LD50/mouse; 24 ng Nb/mouse: 1 survivors of 4 mice
  Survivors/Injected mice; i.c.v.; AahII:Nb 1:2; 3 LD50/mouse; 36 ng Nb/mouse: 0 survivors of 4 mice
